The results in this text go back to patent US20260007756A1, “COMPOUND AND USE THEREOF” (COHERENT BIOPHARMA (SUZHOU) LIMITED, priority 2022, published 2026).

Molecules are shown by their SMILES. Values after ≈ are worked out from the molar mass of the structure shown. Where two headings read alike, the source gives them in different places. Numbered stars: 1 amine (or outer) side, 2 acyl side, 3 side chain; on linkers, the order of the positions; unused ones are H or OH. Square brackets hold non-standard residues; d marks the D form. Side chains are listed from the residue outwards. Peptide text beside a SMILES is read from it. * marks the point of attachment. EuK = O=C(O)CC[C@H](NC(=O)N[C@@H](CCCCN*)C(=O)O)C(=O)O; Pteroyl = Nc1nc2ncc(CNc3ccc(C(=O)*)cc3)nc2c(=O)[nH]1; γGlu = O=C(O)[C@H](CCC(=O)[*:2])N[*:1]; X1 = O=C(Cc1ccc(CN[*:1])cc1)[*:2]; Pra = C#CC[C@H](N)C(=O)O; CO = O=C([*:1])[*:2]

For data set [1], the system named is 22RV1. It is filed as cell-based, human. As to conditions: 22RV1, 72 h, CellTiter-Glo. The source says: (§1) Negative and blank controls were set.
Data set [2] relates to MDA-MB-231. It is filed as cell-based, human. As to conditions: MDA-MB-231, 72 h, CellTiter-Glo.
From the text: as §1

A short description of data set [3]: Solubility study in PBS. It is filed as physicochemical. The settings on record: aqueous buffer, thermodynamic from solid; PBS (pH 7.2 to 7.4); read-out: Solubility, concentration. Here is the method: The mixture was vortexed for 2 min until the solid was dissolved. The solubility was calculated as: C=m/V, C: concentration, m: sample weight, V: PBS total volume.

A short description of data set [4]: Plasma stability study 2. The settings on record: mouse plasma, 37° C.; for remaining at 0.5 h, 100 μg/mL / remaining at 1 h, 100 μg/mL / remaining at 2 h, 100 μg/mL / remaining at 4 h, 100 μg/mL / remaining at 6 h, 100 μg/mL: read-out: Residual rate of principal component. It is filed as in vitro ADME.
Protocol: • 1) The conjugate compounds were prepared into 1 mg/mL stock solutions with 0.1% TFA-acetonitrile water (1:1); • 2) 10 μL of 1 mg/mL compound stock solution was added into 90 μL of fresh plasma, and the mixture was well mixed by gentle shaking, and transferred to a thermostatic incubator at 37° C. for 0 h, 0.5 h, 1 h, 2 h, 4 h, 6 h, or 24 h of incubation; • 3) at the time points, samples were taken out and 300 μL of methanol solution (containing 10 ng/ml of terfenadine) was added for protein precipitation; • 4) the mixture was centrifuged (13 min, 4° C., 12000 rpm) and the supernatant was collected, and preserved in a −80° C. refrigerator; after collection, the samples were loaded for LC-MS analysis.
Data set [5] has as its system plasmin. The settings on record: PBS pH 7.4, 37° C. Here is the method: • 1) The compounds were formulated into 500 μg/mL stock solutions with PBS (pH 7.4); • 2) 60 μL of 500 μg/mL compound stock solution was added to 420 μL PBS (pH 7.4), before 60 μL of 0.2 U/mL plasmin (or 60 μL of 0.5 U/mL sulfatase) was added, and the mixture was well mixed by gentle shaking; • 3) The cleavage reaction system in step 2) was transferred to a thermostatic incubator at 37° C. for 0 h, 1 h, 2 h, 4 h, or 24 h of incubation. Samples were taken and loaded at various time points for LC-MS analysis.

Regarding `CC[C@@H]1C(=O)N(C)c2cnc(Nc3ccc(-c4cn([C@H]5CC[C@@H](N(CCOCCC#Cc6cccc7c6CN(C6CCC(=O)NC6=O)C7=O)C(=O)OCc6ccc(NC(=O)[C@H](CCCNC(N)=O)NC(=O)[C@@H](NC(=O)COCCOCCn7cc(C[C@H](NC(=O)[C@H](CCCCN)NC(=O)[C@H](CC(=O)O)NC(=O)[C@H](CC(=O)O)NC(=O)Cc8ccc(CNC(=O)NCCCC[C@H](NC(=O)N[C@@H](CCC(=O)O)C(=O)O)C(=O)O)cc8)C(=O)N[C@@H](CCCCNC(=O)CC[C@H](NC(=O)c8ccc(NCc9cnc%10[nH]c(N)nc(=O)c%10n9)cc8)C(=O)O)C(N)=O)nn7)C(C)C)c(OC)c6)CC5)nn4)cc3OC)nc2N1C1CCCC1` (some centres unmarked) [CR202FU], the IC50 in data set [1] was determined as 469 nM; in data set [2] it was 792 nM.

For the compound `CC[C@@H]1C(=O)N(C)c2cnc(Nc3ccc(-c4cn([C@H]5CC[C@@H](N(CCOCCC#Cc6cccc7c6CN(C6CCC(=O)NC6=O)C7=O)C(=O)OCc6ccc(NC(=O)[C@H](CCCNC(N)=O)NC(=O)[C@@H](NC(=O)OCCOCCNS(=O)(=O)NC(=O)OCCn7cc(C[C@H](NC(=O)[C@H](CCCCN)NC(=O)[C@H](CC(=O)O)NC(=O)[C@H](CC(=O)O)NC(=O)Cc8ccc(CNC(=O)NCCCC[C@H](NC(=O)N[C@@H](CCC(=O)O)C(=O)O)C(=O)O)cc8)C(=O)N[C@@H](CCCCNC(=O)CC[C@H](NC(=O)c8ccc(NCc9cnc%10[nH]c(N)nc(=O)c%10n9)cc8)C(=O)O)C(N)=O)nn7)C(C)C)cc6)CC5)nn4)cc3OC)nc2N1C1CCCC1` (some centres unmarked) [CR202GM], the values for the IC50 in data set [1] and in data set [2] were 287 nM and 512 nM, respectively.

In the case of `CC[C@@H]1C(=O)N(C)c2cnc(Nc3ccc(-c4cn([C@H]5CC[C@@H](N(CCOCCC#Cc6cccc7c6CN(C6CCC(=O)NC6=O)C7=O)C(=O)CNC(=O)[C@@H]6CCCN6C(=O)[C@H](CCCNC(N)=O)NC(=O)[C@@H](NC(=O)COCCOCCn6cc(C[C@H](NC(=O)[C@H](CCCCN)NC(=O)[C@H](CC(=O)O)NC(=O)[C@H](CC(=O)O)NC(=O)Cc7ccc(CNC(=O)NCCCC[C@H](NC(=O)N[C@@H](CCC(=O)O)C(=O)O)C(=O)O)cc7)C(=O)N[C@@H](CCCCNC(=O)CC[C@H](NC(=O)c7ccc(NCc8cnc9[nH]c(N)nc(=O)c9n8)cc7)C(=O)O)C(N)=O)nn6)C(C)C)CC5)nn4)cc3OC)nc2N1C1CCCC1` (some centres unmarked) [CR202GQ], the IC50 worked out at 3160 nM in data set [1] and 4480 nM in data set [2].

As to `CC[C@@H]1C(=O)N(C)c2cnc(Nc3ccc(-c4cn([C@H]5CC[C@@H](N(CCOCCC#Cc6cccc7c6CN(C6CCC(=O)NC6=O)C7=O)C(=O)NCCNC(=O)OCc6ccc(NC(=O)[C@H](CCCNC(N)=O)NC(=O)[C@@H](NC(=O)COCCOCCn7cc(C[C@H](NC(=O)[C@H](CCCCN)NC(=O)[C@H](CC(=O)O)NC(=O)[C@H](CC(=O)O)NC(=O)Cc8ccc(CNC(=O)NCCCC[C@H](NC(=O)N[C@@H](CCC(=O)O)C(=O)O)C(=O)O)cc8)C(=O)N[C@@H](CCCCNC(=O)CC[C@H](NC(=O)c8ccc(NCc9cnc%10[nH]c(N)nc(=O)c%10n9)cc8)C(=O)O)C(N)=O)nn7)C(C)C)cc6)CC5)nn4)cc3OC)nc2N1C1CCCC1` (some centres unmarked) [CR202HJ], the IC50 in data set [1] worked out at 1220 nM; in data set [2] it was 3650 nM.

Consider `CC[C@@H]1C(=O)N(C)c2cnc(Nc3ccc(-c4cn([C@H]5CC[C@@H](N(CCOCCC#Cc6cccc7c6CN(C6CCC(=O)NC6=O)C7=O)C(=O)OC[C@@H](C)SSC[C@H](NC(=O)[C@H](CCCCN)NC(=O)[C@H](CC(=O)O)NC(=O)[C@H](CC(=O)O)NC(=O)Cc6ccc(CNC(=O)NCCCC[C@H](NC(=O)N[C@@H](CCC(=O)O)C(=O)O)C(=O)O)cc6)C(=O)N[C@@H](CCCCNC(=O)CC[C@H](NC(=O)c6ccc(NCc7cnc8[nH]c(N)nc(=O)c8n7)cc6)C(=O)O)C(N)=O)CC5)nn4)cc3OC)nc2N1C1CCCC1` (some centres unmarked) [CR202HV], for which the half-maximal inhibitory concentration (IC50) stood at 155 nM in data set [1] and 14.2 nM in data set [2].

For the compound `CC[C@@H]1C(=O)N(C)c2cnc(Nc3ccc(-c4cn([C@H]5CC[C@@H](N(CCOCCC#Cc6cccc7c6CN(C6CCC(=O)NC6=O)C7=O)C(=O)OCc6ccc(NC(=O)[C@H](CCCCN)NC(=O)[C@H](CC(C)C)NC(=O)[C@@H](NC(=O)COCCOCCn7cc(C[C@H](NC(=O)[C@H](CCCCN)NC(=O)[C@H](CC(=O)O)NC(=O)[C@H](CC(=O)O)NC(=O)Cc8ccc(CNC(=O)NCCCC[C@H](NC(=O)N[C@@H](CCC(=O)O)C(=O)O)C(=O)O)cc8)C(=O)N[C@@H](CCCCNC(=O)CC[C@H](NC(=O)c8ccc(NCc9cnc%10[nH]c(N)nc(=O)c%10n9)cc8)C(=O)O)C(N)=O)nn7)C(C)C)cc6)CC5)nn4)cc3OC)nc2N1C1CCCC1` (some centres unmarked) [CR202V8], the solubility in data set [3] was found to be 7500 µg/mL (≈ 2450 µM). The “CR20274 release rate (actual release/theoretical release)” value is reported as 0.06% in data set [4] (0 h); 1.94% in data set [4] (0.5 h); 5.56% in data set [4] (1 h); 7.07% in data set [4] (2 h); 14.20% in data set [4] (4 h); 14.58% in data set [4] (6 h). The “CR20274 release rate (actual release/theoretical release)” value in data set [4] (24 h) is given as 105.58%. Moreover, the results for the “Residual rate of principal component” value in data set [4] (0 h) and in data set [4] (24 h) were 78.37% and −2.40%, respectively. Besides, in data set [4] (0.5 h), the remaining at 0.5 h, 100 μg/mL was determined as 50.9%. In addition, the remaining at 1 h, 100 μg/mL in data set [4] (1 h) was found to be 59.9%. The remaining at 2 h, 100 μg/mL in data set [4] (2 h) is 49.5%. Further, the remaining at 4 h, 100 μg/mL in data set [4] (4 h) amounted to 41.2%. Moreover, the remaining at 6 h, 100 μg/mL in data set [4] (6 h) came to 32.5%. Moreover, the “CR20274 release rate of compounds after cleavage” value in data set [5] (0 h) stood at 22%; in data set [5] (1 h), 100%; in data set [5] (2 h) it was 100%; in data set [5] (4 h), 100%; in data set [5] (24 h), 100%. The “Principal component residue of compounds after cleavage” value is listed as 8% in data set [5] (0 h); 1% in data set [5] (1 h); 1% in data set [5] (2 h); 0% in data set [5] (4 h); 0% in data set [5] (24 h). For the same compound, the IC50 was 20.5 nM in data set [1] and 24.1 nM in data set [2].

With `CC[C@@H]1C(=O)N(C)c2cnc(Nc3ccc(-c4cn([C@H]5CC[C@@H](N(CCOCCC#Cc6cccc7c6CN(C6CCC(=O)NC6=O)C7=O)C(=O)OCc6ccc(NC(=O)[C@H](CC(N)=O)NC(=O)[C@H](CC(N)=O)NC(=O)CNC(=O)COCCOCCn7cc(C[C@H](NC(=O)[C@H](CCCCN)NC(=O)[C@H](CC(=O)O)NC(=O)[C@H](CC(=O)O)NC(=O)Cc8ccc(CNC(=O)NCCCC[C@H](NC(=O)N[C@@H](CCC(=O)O)C(=O)O)C(=O)O)cc8)C(=O)N[C@@H](CCCCNC(=O)CC[C@H](NC(=O)c8ccc(NCc9cnc%10[nH]c(N)nc(=O)c%10n9)cc8)C(=O)O)C(N)=O)nn7)cc6)CC5)nn4)cc3OC)nc2N1C1CCCC1` (some centres unmarked) [CR202V9], the solubility in data set [3] was 15800 µg/mL (≈ 5260 µM). In data set [4] (0 h), the “CR20274 release rate (actual release/theoretical release)” value turned out to be 0.11% and the “Residual rate of principal component” value is given as 99.22%. Further, in data set [4] (0.5 h), the “CR20274 release rate (actual release/theoretical release)” value came to 0.17% and the remaining at 0.5 h, 100 μg/mL was found to be 99.8%. In addition, in data set [4] (1 h), the “CR20274 release rate (actual release/theoretical release)” value came out at 0.22% and the remaining at 1 h, 100 μg/mL is 98.4%. In addition, in data set [4] (2 h), the “CR20274 release rate (actual release/theoretical release)” value stood at 0.21% and the remaining at 2 h, 100 μg/mL is 89.6%. Also, in data set [4] (4 h), the “CR20274 release rate (actual release/theoretical release)” value is given as 0.25% and the remaining at 4 h, 100 μg/mL is 67.1%. In addition, in data set [4] (6 h), the “CR20274 release rate (actual release/theoretical release)” value amounted to 0.30% and the remaining at 6 h, 100 μg/mL is 66.3%. Besides, in data set [4] (24 h), the “CR20274 release rate (actual release/theoretical release)” value was found to be 1.46% and the “Residual rate of principal component” value is recorded as 0.62%.

`C#CC[C@H](NC(=O)[C@H](CCCCN)NC(=O)[C@H](CC(=O)O)NC(=O)[C@H](CC(=O)O)NC(=O)Cc1ccc(CNC(=O)NCCCC[C@H](NC(=O)N[C@@H](CCC(=O)O)C(=O)O)C(=O)O)cc1)C(=O)N[C@@H](CCCCNC(=O)CC[C@H](NC(=O)c1ccc(NCc2cnc3[nH]c(N)nc(=O)c3n2)cc1)C(=O)O)C(N)=O` [CR202W4] ({EuK-CO}-[X1]DDK[Pra]K([γGlu-Pteroyl])-NH2): the solubility in data set [3] turned out to be 2800 µg/mL (≈ 1850 µM).
